The chains are these.
B1: Josephin domain of ataxin-3 (domain or fragment, UniProt P54252 1-180, looked up)
chain: MESIFHEKQEGSLCAQHCLNNLLQGEYFSPVELSSIAHQLDEEERMRMAEGGVTSEDYRTFLQQPSGNMDDSGFFSIQVISNALKVWGLELILFNSPEYQRLRIDPINERSFICNYKEHWFTVRKLGKQWFNLNSLLTGPELISDTYLALFLAQLQQEGYSIFVVKGDLPDCEADQLLQM
notes: cloned in pET21-a; likely residues 1-182 of human ataxin-3 (surmised). pET21-a may add a C-terminal His6 tag; also called JD; source: E. coli BL21 Tuner (DE3) pLacI, purified as previously described (Bonanomi et al., 2015)
B2: HspB8 (natural protein, UniProt Q9UJY1 1-196, looked up)
chain: MADGQMPFSCHYPSRLRRDPFRDSPLSSRLLDDGFGMDPFPDDLTASWPDWALPRLSSAWPGTLRSGMVPRGPTATARFGVPAEGRTPPPFPGEPWKVCVNVHSFKPEELMVKTKDGYVEVSGKHEEKQQEGGIVSKNFTKKIQLPAEVDPVTVFASLSPEGLLIIEAPQVPPYSTFGESSFNNELPQDSQEVTCT
notes: HspB8, small heat shock protein; gene in pGEX-6P-1, provided by Serena Carra; source: E. coli BL21-CodonPlus(DE3)-RIL, purified (Glutathione Sepharose, PreScission cleavage on the resin, Superose 12 SEC); not shown: GST, N-terminal, cleaved
B3: HspB8-BAG3 complex (complex)
chain 1: B2 chain
chain 2: not shown

The assay “HspB8” has as its target B2. Kind of assay: SPR; BIACORE X100; JD amine-coupled to a CM5 chip (3000 RU); single cycle kinetics at 25°C, 10 uL/min, 10 mM HEPES pH 7.4, 150 mM NaCl, 3 mM EDTA, 0.005% P20; Langmuir 1:1 fit, complex assumed to bind JD 1:1. The following applies: both partners purified.
For the assay “HspB8-BAG3 complex”, the target named is B3. The assay is described as above. The following applies: both partners purified.
Assay [1] has as its target T1, BAG3 (Bcl-2 associated athanogene protein 3) (human, UniProt O95817 1-575).
T1 construct: BAG3, human; no removal of the tag is described; source: E. coli M15 (pREP4), purified (HisPur Cobalt resin, Superose 12 SEC)
The assay is described as above. The conditions noted are these: both partners purified.

In assay [2] the target is B1. The assay is described as follows: cell-based or functional assay.
For assay [3], the target named is T1, BAG3 (Bcl-2 associated athanogene …). The assay is described as follows: SPR; BIACORE X; BAG3 amine-coupled to a CM5 chip (3400 RU); running buffer 10 mM HEPES pH 7.4, 150 mM NaCl, 3 mM EDTA, 0.005% P20; 10 uL/min; Langmuir 1:1 fit. The following applies: both partners purified.
Assay [4] has the same target. The assay is described as follows: SPR; BIACORE X; HspB8 amine-coupled to a CM5 chip (7400 RU); running buffer 10 mM HEPES pH 7.4, 150 mM NaCl, 3 mM EDTA, 0.005% P20; 10 uL/min; Langmuir 1:1 fit. The conditions noted are these: both partners purified.

T1 sequence (O95817 whole entry): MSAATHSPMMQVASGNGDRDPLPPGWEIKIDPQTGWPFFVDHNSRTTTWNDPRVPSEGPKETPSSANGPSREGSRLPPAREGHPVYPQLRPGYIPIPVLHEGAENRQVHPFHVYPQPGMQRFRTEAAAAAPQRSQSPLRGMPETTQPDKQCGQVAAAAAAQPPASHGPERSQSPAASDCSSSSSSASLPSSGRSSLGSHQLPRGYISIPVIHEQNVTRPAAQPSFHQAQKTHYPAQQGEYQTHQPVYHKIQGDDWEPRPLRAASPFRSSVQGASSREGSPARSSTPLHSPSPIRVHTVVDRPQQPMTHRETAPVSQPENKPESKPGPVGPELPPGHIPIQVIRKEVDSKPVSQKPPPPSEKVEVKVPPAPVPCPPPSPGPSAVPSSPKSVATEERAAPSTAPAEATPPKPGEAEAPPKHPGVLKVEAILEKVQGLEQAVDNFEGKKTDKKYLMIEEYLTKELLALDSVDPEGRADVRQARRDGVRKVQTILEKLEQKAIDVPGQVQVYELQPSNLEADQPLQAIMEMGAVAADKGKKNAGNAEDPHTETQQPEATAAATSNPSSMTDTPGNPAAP
Sequence of HspB8-BAG3 complex (O95817 whole entry, one chain of several): as the sequence (O95817 whole entry) above

In the case of B1, in the assay with HspB8, the Ka is 120000 M⁻¹, the dissociation constant Kd worked out at 8100 nM, the koff was 0.0006 s⁻¹ and the kon was 74 M⁻¹ s⁻¹. In the assay with HspB8-BAG3 complex, this molecule gave a Ka of 1.4e+07 M⁻¹, a Kd of 73 nM, a dissociation rate constant (koff) of 0.00024 s⁻¹ and a kon of 3300 M⁻¹ s⁻¹. In assay [1], the Ka stood at 190000 M⁻¹, the Kd came out at 5400 nM, the koff was 0.0014 s⁻¹ and the association rate constant (kon) was 260 M⁻¹ s⁻¹.

Turning to B2, in assay [2], the “inhibition of JD aggregation (ThT fluorescence, 10 uM JD at 37°C with HspB8 at different molar ratios; 20% at JD:HspB8 1:0.093, maximum at 4:1)” value was 35%. In assay [3], the Ka came out at 2.2e+08 M⁻¹, the Kd was found to be 4.5 nM, the koff worked out at 0.00056 s⁻¹ and the kon is 130000 M⁻¹ s⁻¹. In assay [4], this molecule came in with a Ka of 4.2e+08 M⁻¹, a Kd of 2.4 nM, a koff of 0.00022 s⁻¹ and a kon of 93000 M⁻¹ s⁻¹.

On to B3, for which the “inhibition of JD aggregation (ThT fluorescence, 10 uM JD at 37°C with the HspB8-BAG3 complex at different ratios; maximum at JD:complex 1:0.5)” value in assay [2] was 40%.

For the origin of these results see PMC10273338, “HspB8 interacts with BAG3 in a “native‐like” conformation forming a complex that displays chaperone‐like activity” (Protein Science : A Publication of the Protein Society, 2023).
